Test: soluble on expression in E. coli; label from the status in PepcDB or PDB records

Sequence | soluble on expression in E. coli
MEMNVAAPAAAVAGAAAPQPGQNQTGSSYTMASLYVGDLHPDVNESILFEKFSAAGPVLSIRVCRDNATRLSLGYAYVNFQQPADAERAMDTMNFEALHGKPMRIMWSQRDPAMRRSGAGNIFIKNLDKVIDNKSIYDTFSLFGNILSCKVAIDEDGFSKGYGFVHFETEEAAQNAIQKVNGMLLAGKKVFVGKFQPRAQRNRELGETAKQFTNVYVKNFGDHYNKETLEKLFAKFGNITSCEVMTVEGKSKGFGFVAFANPEEAETAVQALHDSTIEGTDLKLHVCRAQKKSERHAELKKKHEQHKAERMQKYQGVNLYVKNLDETVDDDGLKKQFESYGNITSAKVMTDENGRSKGFGFVCFEKPEEATSAVTEMNSKMVCSKPLYVAIAQRKEDRRAQLASQYMQRLASMRMHGNVPGAAMYNPTQPGPGYYVANPMQQQRNFAGGQQMVRPGGRWGMQNQYPVQNQYMMAQGPGVYQNRMGRPQNQQGGPRGPPQQYNQVAQGGVRMQGPPRTQNPGVQQQNVPRPPQQQQQQRPAPTGPKAPPQPYQAYQQRPQGIVIGGQEPLTSAMLAAAAPQEQKQLLGERIYALIEKLYPGHKDAGKITGMMLEIDNSELIMMLQDSELFRSKVDEAASVLVSAQKQ | not soluble
MGHHHHHHSHVLLNEILEQVKDRTCLRALEKIKIQLEKGNKEFGDQAEAAQDATLTTTTFQNEDEKNKEVYMTPLRGVKATQASKSTQLKTNRGQRKVTVSARTNRRCQTAEADSESDHEVPEPESEMKMRLPRRAKTAALEKSKLNLAQFLNEDLS | not soluble
MLPANEIKGVLAFLREAERLKSVIRSGYTSTGRPESTAEHTWRLCLMAMLLADGLGDIDVARLLKICIVHDLGEALHGDVPAVAQVEGDDRAARERADIETLTQSLDDKRRAELLGLWHDYETGASPEGRLAKGLDKLETILQHTQGLNPADFDYAFNLDYGARHTAVHPLVSAIRAELDNDTRARMALQQASGAPH | not soluble
MNIDTKYHGTVAVNEQDIVHFPHGLPGFADEKRFVLLPLADTPFVILQSVETPALGFVLIEPFSYFPTYEFELDEATVEQLDIESERDVAVYVILTVADPFHETTANLQAPVVINARKRFGKQVILANTPYKTKHRLFPEKVAT | not soluble
MKILKKIFQVIVKIINHCVPVDSRSLYFIPHPNCRTDKYDIINYSSDNVLVLLNYLLKKDSAEYYKIYVEIYDSSRISEYQEYIYGINPNIRCTFLCACVGRFFFNKVSFKDMLYAFFCFCRASKCFTATFYYDFSFKKRSQQIICLGYYTPFKDDYHMGDHSYDKFRNTTCNSFDYSIATSCLSARIISIDCGISYDKFKVLGFPRNDLLISKNNCNVIKREISKFAGYDVTKYIVYTPTFRDYETVTEGNLRSILGYVDCDLLKLSKILLKFNAALILKLHPLQNKTVLKKDLPKGILVFEQTYKYGLYDLLSFSDGMITDYTSTYFDFLLVNKPVIFNFYDIEEYRRVRGFSFEPIEFFCAGDIVYNYNELIDAVMGLLAGKDIHAEHRRHISLLMNQFQDDNSTKRICDIFLNEILEHHHHHH | not soluble
AHHHHHHGSVRIEVVDIEKPEGVEVIIGQGNFSIFTVDDLARALLTTVPGIKFGIAMNEAKPQLTRYTGNDPELEKLAAKNALKIGAGHVFVILMKNAYPINVLNTIKNHPAVAMVYGASENPFQVIVAETELGRAVIGVVDGKAATKIETEEQKKERRELVEKIGYKID | not soluble
MSAEKSSADTAKKTLTIYSTMSTDSERDTFRKLAAAFEKEHSDIHVSLHFPGNDYENMMRVRMAANDLPDLFDTHGWGKIRYGEYTADLRDMKWTQDLDPNLNSILKNKSGKVYAYPINQAKDGLAYNRNILDRYGIAPPETMDDFIKALRTIKEKSKGSIVPFWFAGYDKSSFAQYYDQFATPLLITDPAHNEKKQLINGTFQWSKFTYLSEILKQMQKEKLINIDAVTAKKSQLIELMAQNKIAFTMQGGTLGQDVAQINPNVKVGIIPTPAIHPGDDPIWIGGERYTLAAWKDSPQLKEAKDFIAFMARPANAKQMAEATSLPSGLTNVKADIFYANDYEYYQDVKVEPYFDRLYLPNGMWDVLGTVGQELAADILAPQDISQKLGREYKRLREQSETQGAENNELEHHHHHH | soluble
MSLAKTVLVTGASGFIGSHLVGRCLADGCRVKALVRKGNACIDSLRASGVEVIEGDVRDATAVDAAVRESDLVLHAAALTSDWGKMQEFIDINVGGTRNVCEASLRHGVGRLVHVSSFECFDHHLLGRIDEQTPYKARKQSYPDTKIGGTNEVWAAIKRGLSASILYPVWVYGPGDRTLFPLLADSILRRQLFFWARNAPMSMIYIDNLVDLTMLAASRPEAVGEAFMACDGEAITFEEVCRRVAVAIGSPVPSLHLPFGMVRSVAGVMEFVWRIAGSKKRPLLTRQAVDVLASRALADVSKARTMLGWQSHVPQEEGIRRTLEWLVTVDPARWKVKEGHHHHHH | soluble
HDYLMKGNLSRLVPAIERELREADERRRRRQAEEAMHAQFNQISTIFDSLNALVYVVDMNSYELLYLNKFGAQLFGEAWEGRTCHDVLHGGRSTPCDFCTNDKLIMDGKALPPYIWEYQNSISSRWYQCIDKAIRWTD | not soluble
TVIYDKNEKQAGTLYGQKGTYVELDAISDDLENAVISTEDRSFYKNSGINYKRMLLAIVTLGYSGGGSTITQQLAKNAFLTQEQTVKRKAREFFLALELTKKYSKKEILTMYLNNAYFGNGVWGVEDASQKYFGTSASRLTLDEAATLAGMLKGPGIYNPLYSI | not soluble
MNEKVFRDPVHNYIHIDNPLIYDLINTKEFQRLRRIKQVPTTAFTFHGAEHSRFSHCLGVYEIARRVTAIFEEKYADIWNKDESLVTMTAALLHDIGHGAYSHTFEVLFHTDHEAFTQEIITNPETEINAILVRHAPDFPDKVASVINHTYPNKQVVQLISSQIDCDRMDYLLRDSYFSAANYGQFDLMRILRVIRPVEDGIVFEHSGMHAVEDYIVSRFQMYMQVYFHPASRAVELILQNLLKRAQHLYPEQQAYFQKTAPGLIPFFEKKANLADYIALDDGVMNTYFQVWMASEDHILSDLASRFINRKILKSVTFDQDSQGELERLRQLVESVGFDPDYYTGIHINFDLPYDIYRPELENPRTQIEMMQKDGSLAELSQLSPIVKALTGTTYGDRRFYFPKEMLELDDLFAPSKETFMSYISNGHFHFSQ | not soluble
MGSDKIHHHHHHMYNVMNCIIVDDEPLAREAMKLLIEEAECLQLVGSFNSAATASDFMEQHVVDLVFLDIQMPGITGIEFARTISKRTLVIFTTAYTEYALDSYEVDAIDYLIKPVEAERFQKAVEKAQSYHSLLLQEEKEAIETIVAAEYFFVKAERRYFKVNFSDILFVEGLKDYVILQLGEQRIITRMSLKAVFDLLPKDSFLRVNKSYIVNTAHIDSFDNNDIFIKSYEIAIGNSYRDDFFEGFVMKQQRW | not soluble
MKFPKDFMIGYSSSPFQFEAGIPGSEDPNSDWWVWVHDPENTAAGLVSGDFPENGPGYWNLNQNDHDLAEKLGVNTIRVGVEWSRIFPKPTFNVKVPVERDENGSIVHVDVDDKAVERLDELANKEAVNHYVEMYKDWVERGRKLILNLYHWPLPLWLHNPIMVRRMGPDRAPSGWLNEESVVEFAKYAAYIAWKMGELPVMWSTMNEPNVVYEQGYMFVKGGFPPGYLSLEAADKARRNMIQAHARAYDNIKRFSKKPVGLIYAFQWFELLEGPAEVFDKFKSSKLYYFTDIVSKGSSIINVEYRRDLANRLDWLGVNYYSRLVYKIVDDKPIILHGYGFLCTPGGISPAENPCSDFGWEVYPEGLYLLLKELYNRYGVDLIVTENGVSDSRDALRPAYLVSHVYSVWKAANEGIPVKGYLHWSLTDNYEWAQGFRQKFGLVMVDFKTKKRYLRPSALVFREIATHNGIPDELQHLTLIQ | soluble
MGSDKIHHHHHHMVTKTKTRLGNQRPTQSVTLHYVESLAHEAIELYQKTGRNCYPWQVNLLENIMGIDNNGLWVHQKYGYAIPRRNGKTEDVYILELWALHHGLRILHTAHRISTSHSSFEALKKLLEDMGYVEDVDFVSNKAKGQERIEFKSTGSVIQYRTRTSNGGLGEGFDLLIIDEAQEYTVEQESALKYTVTDSDNPMTVMCGTPPTMVSTGTVFTNFRTKVLAGKSEYSGWSEWSVEDIKDVNDIDSWYLTNPSLGYHLTERKIKAEIGDDELDHNIQRLGYWPSFNQKSAISENEWKRLKVDDVPELSGKLFVGIKYGQDGSNVSMSIAARTIDKKIFIEVIDCQSVRNGMQWIINFLQTADIEKVVVDGANGQTLLANEMKDFKLREPIMPTVSEIITANSVWEQAIVQETLRHANQPSLTEVVTNCDKRNIGSNGGFGYKSLYDDRDISLMDSALLAHWVCYMTKPKRKQRISY | not soluble
MSLSYRIDGLQYANWSEKIFRQLRAGNVDAVHVTIAYHESFRETVLNFEKWNRWFEQYPDLIMKGQWASDIDTARETGRTAIFFGFQNPSPIEDDIGLVEILHTLGARFMQLTYNNQSLLATGCYEAEDAGITRMGRQVIKEMNRVGLVVDMSHSADRSTIEAVEISERPIAITHANPHDWAPALRNKRDDVIRAVTENGGMLGFSVYPHHLKDKSDCTLDSFCEMIARTAERYGVDHLGIGTDLCQDQPDSVVEWMRTGRWSKEIDFGEGSASAPGFPPMPHWFEDNRDFGNIENGLRATGLNKDEVAGIMGGNWYRFFAQNFVPQGEGHHHHHH | soluble
MGHHHHHHAKAVAPTTGWKQENGMWYFYNTDGSMATGWVQVNGSWYYLNSNGSMKVNQWFQVGGKWYYVNTSGELAVNTSIDGYRVNDNGEWVR | soluble
MSSSSPGEPLEPTDQDLDVLLKNLGNLVTPMALRVAATLRLVDHLLAGADTLAGLADRTDTHPQALSRLVRHLTVVGVLEGGEKQGRPLRPTRLGMLLADGHPAQQRAWLDLNGAVSHADLAFTGLLDVVRTGRPAYAGRYGRPFWEDLSADVALADSFDALMSCDEDLAYEAPADAYDWSAVRHVLDVGGGNGGMLAAIALRAPHLRGTLVELAGPAERARRRFADAGLADRVTVAEGDFFKPLPVTADVVLLSFVLLNWSDEDALTILRGCVRALEPGGRLLVLDRADVEGDGADRFFSTLLDLRMLTFMGGRVRTRDEVVDLAGSAGLALASERTSGSTTLPFDFSILEFTAVSEEAAPAAQASEALPAQE | soluble
SLFKTKWFAREARSHAITDEELCRAILETEQGKADALGGGVFKKRLHQNRERAIILAKGVSNWFYTFLYAKQDMSNINSQELAGFREIAKHYAFLTKAQLTAMINTKELTEICYDCKN | not soluble
AHHHHHHGSSSIEWNEKTFAKFAYLSDPRTKGELVAYVLTKANLKDNKYENTIVIENLKNNARRFIENATMPRISPDGKKIAFMRANEEKKVSEIWVADLETLSSKKILEAKNIRSLEWNEDSRKLLIVGFKRREDEDFIFEDDVPAWFDDLGFFDGEKTTFWIFDTESEEVIEEFEKPRFSSGIWHRDKIVVNVPHREIIPQYFKFWDIYIWEDGKEEKMFEKVSFYAVDSDGERILLYGKPEKKYMSEHNKLYIYDGKEVMGILDEVDRGVGQAKIKDGKVYFTLFEEGSVNLYIWDGEIKPIAKGRHWIMGFDVDEIVVYLKETATRLRELFTWDGEEKQLTDYNDPIFAKLKTFEPVHFRYKSLDLEIDGWYMKPELKEGEKAPVIVFVHGGPKGMYGYYFKYEMQLMAAKGYYIVYVNPRGSNGYSEDFALRVLTRTGLEDFQDILNGIEEFLKLEPQADRERIGITGISYGGYMTNWALTQSDLFKAGISENGISYWLTSYAFSDIGLWFDKEVIGENPLENENFRRLSPLFYAKNVKAPILLIHSLEDYRCPLDQSLMFYHVLKDLGKEAYIAIFKRGAHGHSIRGQPRHRMKRYKLFVEFFERKLKKYEEGFPIEKILKE | not soluble
